Reference: PMC5818551
Values joined by “and” are separate entries in the source; they are usually repeats but may differ in a detail not shown here. Identical values can stand only once.

Assays:
full-length gephyrin rC4 [1] = assay: ITC
[2] = molecular target: gephyrin E-domain (GephE); assay: ITC
[3] = molecular target: gephyrin E-domain (GephE); assay: not stated; data not shown; physiologic salt concentrations and pH 7.4-8.0
full-length gephyrin rC4 [4] = molecular target: full-length gephyrin rC4
full-length gephyrin rC4 [5] = assay: cross-linking; EDC cross-linking of purified full-length gephyrin and βL-wt, 6% SDS-PAGE with Coomassie staining, trimer band extracted, tryptic digestion and LC-MS/MS peptide mass fingerprinting

Substance	dH (full-length gephyrin rC4 [1]) [kcal/mol]	Deff of extrasynaptic trajectories above the threshold of 0.02 µm^2/s (sptPALM, rat spinal cord neurons), Q1/Q2/Q3; value: the median Q2 (full-length gephyrin rC4 [4]) [µm^2 · s^−1]	Deff of synaptic trajectories above the threshold of 0.02 µm^2/s (sptPALM, rat spinal cord neurons), Q1/Q2/Q3; value: the median Q2 (full-length gephyrin rC4 [4]) [µm^2 · s^−1]	explored area of extrasynaptic trajectories above the threshold of 0.02 µm^2/s (sptPALM, rat spinal cord neurons), Q1/Q2/Q3; value: the median Q2 (full-length gephyrin rC4 [4]) [µm^2]	explored area of synaptic trajectories above the threshold of 0.02 µm^2/s (sptPALM, rat spinal cord neurons), Q1/Q2/Q3; value: the median Q2 (full-length gephyrin rC4 [4]) [µm^2]	other results
core βL peptide, residues 394-413 (from UniProt P20781 416-435)	-11	–	–	–	–	–
GlyR β-loop wild type, residues 378-426 of the GlyRβ subunit (from UniProt P20781 400-448) (peptide)	–	–	–	–	–	dH [2]: -16.1 kcal/mol
GlyR β-loop βL-LO, residues 378-413 (from UniProt P20781 400-435) (peptide)	-11.8	–	–	–	–	–
gephyrin E-domain (GephE) (domain or fragment)	–	–	–	–	–	stoichiometry N [3]: 2
GlyR β-loop βL-HI, residues 394-426 (from UniProt P20781 416-448) (peptide)	-21.5	–	–	–	–	–
mEos4b-tagged full-length human GlyRβ subunit, wild type (from UniProt P48167-1 23-497) (receptor)	–	0.05	0.04	0.00091	0.00073	–
GlyRβ-D407P/F408G: mEos4b-tagged full-length human GlyRβ with D407P and F408G (from UniProt P48167-1 23-497) (receptor)	–	0.09	0.04	0.00152	0.00086	–
full-length gephyrin rC4 (natural protein)	–	–	–	–	–	stoichiometry N (full-length gephyrin rC4 [5]): 2 and 3
GlyRβ-geph^-: mEos4b-tagged full-length human GlyRβ with F398A/I400A (from UniProt P48167-1 23-497) (receptor)	–	0.11	0.09	0.00183	0.00151	–
GlyRβ-HI: mEos4b-tagged full-length human GlyRβ with deletion ΔV378-L393 (from UniProt P48167-1 23-497) (receptor)	–	0.05	0.04	0.00096	0.00077	–
